# ± gives the standard deviation of the averaged measurements.
# System: ATP
# Assay: switch fluorescence ratio, 500 uM ATP over buffer (Cy3 cluster intensity, sum of 5 cycles each) (fold (ratio)); higher = stronger signal-on switching upon ATP binding; sequences stand for … in TCGTCGGCAGCGTCAGATGTGTATAAGAGACAGTTTTTTTTTTTTTTTTTTTTTTTTT…TC
# Settings: aptamer strand: ATP DNA aptamer (quencher-CACCTGGGGGAGTATTGCGGAGGAAGG + anchor), 100 nM annealed; ATP concentration: 500 uM
# Summary of the method: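 After annealing to 100 nM quencher-labelled ATP aptamer, Cy3-labelled switching-strand clusters on a modified Illumina MiSeq flow-cell were imaged in selection buffer. A second image followed after 15 min with 500 uM ATP at 22 °C, and five such buffer/ATP cycles were done, each separated by NaOH stripping and re-annealing. The fluorescence ratio, averaged per switch-domain sequence, is summed target-cycle over summed buffer-cycle Cy3 intensity per cluster, with clusters outside 100-1000 RFU excluded.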
# 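Also: ATP exposure 15 min at 22 °C before imaging.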
row,Sequence,switch fluorescence ratio
1,ATAGTTTTCC,1 ± 0.024
2,ATATAAGCCC,1.02 ± 0.021
3,ATATAAGGGT,1.02 ± 0.015
4,ATATAAGTTC,1.06 ± 0.055
5,ATATACGTTG,1.03 ± 0.011
6,ATATAGGGGG,0.997 ± 0.014
7,ATATATAGCC,1.01 ± 0.022
8,ATATATCTAG,0.998 ± 0.029
9,ATATATGGGA,0.973 ± 0.022
10,ATATATGGTT,0.988 ± 0.036
11,ATATATGTTT,0.9649 ± 0.0016
12,ATATATTGGC,1.02 ± 0.054
13,ATATATTTGT,1.008 ± 0.0041
14,ATATCAAAAT,1.01 ± 0.013
15,ATATCAATGT,1 ± 0.028
16,ATATCAGTTC,1.012 ± 0.0091
17,ATATCATCGG,0.964 ± 0.025
18,ATATCCTCCC,1.35 ± 0.016
19,ATATCGCTGA,0.987 ± 0.013
20,ATATCGGAGG,0.99 ± 0.041
21,ATATCGGATG,1.071 ± 0.0078
22,ATATCGTTGA,0.978 ± 0.021
23,ATATCTCCGG,1.07 ± 0.014
24,ATATGAAAGT,0.977 ± 0.024
25,ATATGAATGA,1.01 ± 0.015

row,Sequence,switch fluorescence ratio
1,ATATGATAGA,0.9921 ± 0.0026
2,ATATGCATAG,1.05 ± 0.051
3,ATATGCTATC,1.02 ± 0.014
4,ATATGCTGGT,0.982 ± 0.014
5,ATATGCTGTA,0.989 ± 0.032
6,ATATGGAAAT,1.006 ± 0.0027
7,ATATGGAGTT,0.943 ± 0.022
8,ATATGGGTGG,1.01 ± 0.016
9,ATATGGTATT,0.99 ± 0.023
10,ATATGTATGA,1.003 ± 0.0037
11,ATATGTCAGA,0.9958 ± 0.0056
12,ATATGTCGCT,1.01 ± 0.026
13,ATATGTGGTG,1.02 ± 0.028
14,ATATGTTTGG,1.01 ± 0.018
15,ATATTACGGG,1.03 ± 0.039
16,ATATTAGGCA,1.01 ± 0.037
17,ATATTATTAC,1.06 ± 0.016
18,ATATTATTGT,0.9911 ± 0.0085
19,ATATTCCACA,0.9984 ± 0.0093
20,ATATTCTTGT,1.009 ± 0.0095
21,ATATTCTTTT,1.03 ± 0.091
22,ATATTGACGG,1.09 ± 0.12
23,ATATTGAGAT,0.998 ± 0.037
24,ATATTGAGGG,1.01 ± 0.00033
25,ATATTGCGTT,1.01 ± 0.02

row,Sequence,switch fluorescence ratio
1,ATATTGGATT,0.994 ± 0.018
2,ATATTGGGGC,0.993 ± 0.017
3,ATATTGGTTA,0.9923 ± 0.0052
4,ATATTGGTTT,0.997 ± 0.011
5,ATATTGTTGG,0.972 ± 0.031
6,ATATTGTTTT,1.02 ± 0.019
7,ATATTTACGG,1.079 ± 0.0071
8,ATATTTCATT,0.961 ± 0.012
9,ATATTTCCTA,0.989 ± 0.033
10,ATATTTGTTT,0.993 ± 0.022
11,ATATTTTGAC,1.05 ± 0.061
12,ATATTTTTTA,0.9761 ± 0.0095
13,ATATTTTTTG,0.978 ± 0.024
14,ATCAAACGAG,1.006 ± 0.0073
15,ATCAAACTCG,0.979 ± 0.029
16,ATCAAAGAAC,1.05 ± 0.042
17,ATCAACTTAT,1.02 ± 0.044
18,ATCAAGGATG,1.03 ± 0.038
19,ATCAATGTGC,0.962 ± 0.088
20,ATCAATTGTT,0.989 ± 0.015
21,ATCACAAATA,1.02 ± 0.024
22,ATCACAGCTA,1.04 ± 0.017
23,ATCACTCTTT,1.02 ± 0.058
24,ATCAGAGTGC,1.03 ± 0.06
25,ATCAGCGATC,2.24 ± 0.22

row,Sequence,switch fluorescence ratio
1,ATCAGCGTTT,1.012 ± 0.0092
2,ATCAGGATCG,1.01 ± 0.014
3,ATCAGGGCGT,0.987 ± 0.032
4,ATCAGGGGGA,0.997 ± 0.02
5,ATCAGTTAAT,0.996 ± 0.032
6,ATCAGTTTGG,1.01 ± 0.015
7,ATCATAGGAT,1.0329 ± 0.00082
8,ATCATATATC,0.983 ± 0.089
9,ATCATGCGCT,0.9964 ± 0.0092
10,ATCATGCGGC,0.983 ± 0.014
11,ATCATGGAGG,0.993 ± 0.017
12,ATCATGGCGG,0.99 ± 0.017
13,ATCATTAGAA,0.976 ± 0.031
14,ATCATTATAT,0.99007 ± 0.00051
15,ATCATTATTG,1 ± 0.013
16,ATCCCCATGG,1.91 ± 0.051
17,ATCCCCGGCC,1.03 ± 0.022
18,ATCCGAGATG,1.034 ± 0.0074
19,ATCCGGGTTC,1 ± 0.015
20,ATCCGTTTTG,0.986 ± 0.02
21,ATCCTACAGC,1.1 ± 0.025
22,ATCCTATTGT,1.03 ± 0.036
23,ATCCTCGATT,0.964 ± 0.0095
24,ATCCTGCAGT,1.15 ± 0.031
25,ATCGAAGAGG,0.995 ± 0.048

# Source: the supplement of paper PMC10126150
